Here are results for one molecule from paper PMC3587828 (The Journal of Cell Biology, 2013).

The target in experiment [1] is recombinant Cdc42 (Q61L), GST-free (human, UniProt P60953 1-188, Q61L | C188S). The experiment in a line: pull-down.
The target in the next experiment is T1, MBP–Morg1 (human, UniProt Q9BRX9 1-315).
T1 sequence (looked up): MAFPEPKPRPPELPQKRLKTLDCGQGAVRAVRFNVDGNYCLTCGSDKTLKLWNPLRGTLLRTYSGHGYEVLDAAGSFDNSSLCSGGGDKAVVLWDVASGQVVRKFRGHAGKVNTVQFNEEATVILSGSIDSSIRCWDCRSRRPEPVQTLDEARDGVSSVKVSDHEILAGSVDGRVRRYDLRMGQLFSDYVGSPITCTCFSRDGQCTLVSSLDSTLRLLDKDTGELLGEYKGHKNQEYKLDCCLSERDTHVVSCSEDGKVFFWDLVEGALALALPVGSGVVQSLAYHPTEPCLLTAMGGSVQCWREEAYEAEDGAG
The experiment in a line: pull-down.

Chain of recombinant Cdc42 (Q61L), GST-free (P60953 1-188 Q61L/C188S): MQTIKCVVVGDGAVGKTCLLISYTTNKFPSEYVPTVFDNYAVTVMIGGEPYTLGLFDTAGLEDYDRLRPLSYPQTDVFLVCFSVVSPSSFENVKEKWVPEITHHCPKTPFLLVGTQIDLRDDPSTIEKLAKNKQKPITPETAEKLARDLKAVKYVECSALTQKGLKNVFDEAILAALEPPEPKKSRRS

B1: GST–Par6β (126–254) (domain or fragment, human, UniProt Q9BYG5 126-254, looked up)
chain: RKKPHIVISMPQDFRPVSSIIDVDILPETHRRVRLYKYGTEKPLGFYIRDGSSVRVTPHGLEKVPGIFISRLVPGGLAQSTGLLAVNDEVLEVNGIEVSGKSLDQVTDMMIANSRNLIITVRPANQRNN
Consider B1, for which the binding result (in experiment [1]; in the experiment with MBP–Morg1) was “binds” throughout.
